From PMC7986633 (Angewandte Chemie (International Ed. in English), 2021)

Legend:
[1] = target: the molecule itself; assay: native MS
[2] = target: the molecule itself; assay: SEC-MALS + other: SAXS

| Protein | stoichiometry N [1] | stoichiometry N [2] |
| --- | --- | --- |
| ECSITCTD (C‐terminal fragment of ECSIT, residues 248–431), purified (domain or fragment) PLPKDSTGAADPPQPHIVGIQSPDQQAALARHNPARPVFVEGPFSLWLRNKCVYYHILRADLLPPEEREVEETPEEWNLYYPMQLDLEYVRSGWDNYEFDINEVEEGPVFAMCMAGAHDQATMAKWIQGLQETNPTLAQIPVVFRLAGSTRELQTSSAGLEEPPLPEDHQEEDDNLQRQQQGQS | ≥ 4 | 2 |
| ACAD9 (residues 38–621), recombinant, purified (enzyme) AFAKELFLGKIKKKEVFPFPEVSQDELNEINQFLGPVEKFFTEEVDSRKIDQEGKIPDETLEKLKSLGLFGLQVPEEYGGLGFSNTMYSRLGEIISMDGSITVTLAAHQAIGLKGIILAGTEEQKAKYLPKLASGEHIAAFCLTEPASGSDAASIRSRATLSEDKKHYILNGSKVWITNGGLANIFTVFAKTEVVDSDGSVKDKITAFIVERDFGGVTNGKPEDKLGIRGSNTCEVHFENTKIPVENILGEVGDGFKVAMNILNSGRFSMGSVVAGLLKRLIEMTAEYACTRKQFNKRLSEFGLIQEKFALMAQKAYVMESMTYLTAGMLDQPGFPDCSIEAAMVKVFSSEAAWQCVSEALQILGGLGYTRDYPYERILRDTRILLIFEGTNEILRMYIALTGLQHAGRILTTRIHELKQAKVSTVMDTVGRRLRDSLGRTVDLGLTGNHGVVHPSLADSANKFEENTYCFGRTVETLLLRFGKTIMEEQLVLKRVANILINLYGMTAVLSRASRSIRIGLRNHDHEVLLANTFCVEAYLQNLFSLSQLDKYAPENLDEQIKKVSQQILEKRAYICAHPLDRTC | 2 | – |
